Our source for the DAF occupancy and stoichiometry N (DAF molecules per particle) values is article PMC9781616.

The target of the test is Echovirus 11 (E11) strain 18-2135 full virus particle (capsid of VP1-4) (echovirus 11 (strain 18-2135)). Put plainly: cryo-EM structure.

Substance “Decay-accelerating factor (DAF) full-length ectodomain, short consensus repeats SCR 1-4 (from UniProt P08174 35-285) (receptor)” showed a DAF occupancy of 31.5% and a stoichiometry N (DAF molecules per particle) of 20.
